According to US20240228645A1 (DRAGONFLY THERAPEUTICS, published 2024):
Positions count from the first letter of the chain named. Like-named read-outs stand apart in the source and are kept apart here.

B1: 3A1 (antibody, V domains shown)
VH: QVQLQQPGAELVKPGASVKLSCKASGYTFTSYWMHWVKQRPGQGLEWIGEIDPFDSYTNYNQNFKGKATLTVDKSSSTAYMLLSSLTSDDSAVYYCARERLRLWSYYFDYWGQGTTLTVSS
VL: DVVMTQTPLSLPVSLGDQASISCRSSQSIVHSNGNTYLEWYLQKPGQSPKLLIYKVSNRLSGVPDRFSGSGSGTDFTLKISRVEAEDLGVYYCFQGSHDPFTFGSGTKLEIK
notes: Hybridoma clone from DNA-immunized SWR/J mice; also called clone 3A1
B2: 7G4 (antibody, V domains shown)
VH: B1 VH with I51V, F54S, N63K, M81I, S85N, L101V, Y107F
VL: B1 VL
notes: Hybridoma clone from DNA-immunized SWR/J mice; also called clone 7G4
B3: 10H7-C5 (antibody, V domains shown)
VH: EVQLVESGGGLVKPGGSLKLSCAASGFSFSRYAMSWVRQTPEKRLEWVATISDGGSYTHYRDNVKGRFTISRDNAKNNLNLQMSHLKSEDTAIYYCARNEMGLYFDYDVYAMDYWGQGTSVTVSS
VL: DIVMTQTPLSLPVSLGDQASISCRSSQSLLHSNGNTYLYWYLQKPGQSPKLLIHRVSNRFSGVPDRFGGSGSGTDFTLKIIRVEAEDLGVYFCFQGTHVPWTFGGGTKLEIK
notes: Hybridoma clone from DNA-immunized SWR/J mice; also called clone 10H7-C5
B4: 1B3-A7 (antibody, V domains shown)
VH: EVQLVESGGGLVKPGGSLKLSCVVSGFTFSNYAMSWVRQTPEKRLEWVATISDGGGYTYYPDSVKGRFTISRDNAKNNLYLQMSHLKSEDTAIYYCARDDLGGGNYVSSYFDVWGTGTTVTVSS
VL: B3 VL with I2V, L15P, L30V, H54Y, G68S, I81N, W101L, G105S, I111L
notes: Hybridoma clone from DNA-immunized SWR/J mice; also called clone 1B3-A7

Assays:
[1] = molecular target: T1, human BAFF-R expressed on cells (hBAFF-R-CHO isogenic CHO cells; BAFF-R+ cancer cells) (human, UniProt Q96RJ3 1-184); test: flow cytometry on hBAFFR-CHO cells, anti-mouse IgG(H+L)-PE
T1 construct: whole, on cells; also called hBAFF-R^+ cells; BAFF-R+ CHO cells

[2] = molecular target: T1, human BAFF-R expressed on cells …; test: as above; remark: listed apart in the source

Binder | EC50 (read off the curve) [1] [nM] | EC50 (read off the curve) [2] [nM]
B1 | ~0.3 | 
B2 | ~0.3 | 
B3 |  | ~1
B4 |  | 1 to 2
